Data on ten molecules can be found in patent US20110286916A1 (published 2011).

In assay [1] the target is T1, human full-length Notch3 with C-terminal FLAG tag, stably expressed on 293 FlpIn (TREx) cells (human, UniProt Q9UM47 40-2321).
T1 construct: whole, on cells; made by the same strategy as the Notch1 line; also called 293-N3; hN3
Kind of assay: FACS, phage scFv. On the technique in general: Flow cytometry measures light scatter and fluorescence of single cells or particles in a stream.

Assay [2] concerns the target T2, human full-length Notch1 with C-terminal FLAG tag, stably expressed on 293 FlpIn (TREx) cells (human, UniProt P46531 19-2555).
T2 construct: tetracycline/doxycycline-induced expression from pcDNA5/FRT/TO-HN1+FLAG; also called hN1; 293_N1
Kind of assay: FACS, phage scFv.

B1: N1wc13 (scFv, V domains shown)
VH: QVQLVQSGAEVKKPGASVKVSCKASGYNFTGYYMHWVRQAPGQGLEWMGWINPNSGGTNYAQKFQGRVTMTRETSISTAYMELSRLRSDDTAVYYCATDSFDYWGRGTMVTVSS
VL: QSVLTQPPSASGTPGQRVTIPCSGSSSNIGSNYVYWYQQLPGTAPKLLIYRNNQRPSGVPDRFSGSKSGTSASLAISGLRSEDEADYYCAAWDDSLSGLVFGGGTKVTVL
notes: phage scFv
With B1, the binding result in assay [1] is “binds”.

B2: N1wc160 (scFv, V domains shown)
VH: QVQLQESGAEVKKPGASVKVSCKASGYNFTGYYMHWVRQAPGQGLEWMGWINPNSGGTNYAQKFQGRVTMTRDTSISTAYMELSRLRSDDTAVYYCATDSFDYWGRGTMVTVSS
VL: SYVLTQPPSASGTPGQRVTISCSGSSSNIGSNTVHWYQQLPETAPKLLIYTNNQRPSGVPDRFSGSKSGTSASLAISGLQSEDEADYYCASWDDSLKAYVFGTRTKLTVL
notes: phage scFv
For the molecule B2, the binding result in assay [2] was “binds”.

B3: N1wc202 (scFv, V domains shown)
VH: EVQLVQSGAEVKKPGASVKVSCKASGYNFTGYYMHWVRQAPGQGLEWMGWINPNSGGTNYAQKFQGRVTMTRDTSISTAYMELSRLRSDDTAVYYCATDSFDYWGRGTLVTVSS
VL: SYELTQPPSVSGTPGQRVTISCSGSSSNIESNAVHWYQHLPGRAPKLLIFSHNQRPSGVPARFSGSKSGTSASLAISGLQSEDEADYYCAAWDDSLSGYVFASGTKLTVL
notes: phage scFv
With B3, the binding result in assay [2] is reported as “binds”.

B4: N1wc79 (scFv, V domains shown)
VH: QVQLQQSGAEVKKPGASVKVSCKASGYNFTGYYMHWVRQAPGQGLEWMGWINPNSGGTNYAQKFQGRVTMTRDTSISTAYMELSRLRSDDTAVYYCATDSFDYWGQGTMVTVSS
VL: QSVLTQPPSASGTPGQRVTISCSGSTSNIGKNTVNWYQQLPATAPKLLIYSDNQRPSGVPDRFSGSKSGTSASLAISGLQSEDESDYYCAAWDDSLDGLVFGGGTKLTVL
notes: phage scFv
For the molecule B4, in assay [1], the binding result is on record as “binds”.

B5: hN1S3-184 (scFv, V domains shown)
VH: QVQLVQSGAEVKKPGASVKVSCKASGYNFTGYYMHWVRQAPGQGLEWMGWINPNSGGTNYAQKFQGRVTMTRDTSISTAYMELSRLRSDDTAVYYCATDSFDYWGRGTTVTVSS
VL: QSVLTQPPSASGTPGQRVTISCSGSSSNIGGNYVYWYQQLPGTAPKLLIYRSNQRPSGVPDRFSGSKSGTSASLAISGLRSEDEADYYCAAWDDSLHGVIFGGGTKLTVL
notes: phage scFv
In the case of B5, the binding result in assay [1] is listed as “binds”.

B6: N1wc520 (scFv, V domains shown)
VH: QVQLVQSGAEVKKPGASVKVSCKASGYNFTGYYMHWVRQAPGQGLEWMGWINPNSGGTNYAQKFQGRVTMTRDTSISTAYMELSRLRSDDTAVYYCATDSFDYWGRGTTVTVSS
VL: SYVLTQPPSVSGTPGQRVTISCSGSSSNIESNAVHWYQHLPGRAPKLLIFSHNQRPSGVPARFSGSKSGTSASLAISGLQSEDEADYYCAAWDDSLSGYVFASGTKVTVL
notes: phage scFv
On to B6, for which, in assay [2], the binding result was “binds”.

B7: N1wc625 (scFv, V domains shown)
VH: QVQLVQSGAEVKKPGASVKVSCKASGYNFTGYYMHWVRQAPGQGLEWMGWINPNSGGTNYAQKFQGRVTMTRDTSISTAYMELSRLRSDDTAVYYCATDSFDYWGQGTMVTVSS
VL: QSVLTQPPSASGTPGQRVTISCSGGRSNIGTNYVYWYQKLPGTAPKSLIYTTNQRPSGVPDRFSGSKAGTSASLAISGLRSEDEGDYYCASWDESLNGVVFGGGTKVTVL
notes: phage scFv
Regarding B7, in assay [2], the binding result is “binds”.

B8: N1wc152 (scFv, V domains shown)
VH: QVQLVQSGGGLVQPGGSLRLSCGASGFTFSSHWMSWVRRPPGRGLEWVANINEGGSAEYYADSLKGRFTISRDNAKNSLFLQMDSLRAEDTAVYYCVRDQFHSNYDWGQGTMVTVSS
VL: QAVLTQPSSVSGAPGQRVTISCTGSSSNIGAPFDVHWYQQLPGTAPKLLIYGNSNRPSGVPDRFSGSKFGTSASLAITGLQAADEADYYCQSYDSSLSGWVFGGGTKLTVL
notes: phage scFv
For B8, the binding result in assay [2] was “binds”.

B9: N1wc157 (scFv, V domains shown)
VH: QVQLVQSGAGLKRPGTSVKISCKTSGYIFSQYPMHWVRQAPGQGLEWVAWVDTGNGTTRYSPNFQGRATVSGDTSANTGYLELRSLRFTDTAVYYCATNAFDYWGRGTLVTVSS
VL: SYELTQPPSVSVSPGQTARITCSGDALPDKYVHWYQQKSGQAPVLVLFDDSKRPSGIPERFSGSSSGTVATLIISGAQVEDEGDFFCYSTDSSGNERVFGGGTKLTVL
notes: phage scFv
For B9, the binding result in assay [2] is on record as “binds”.

B10: N1wc175 (scFv, V domains shown)
VH: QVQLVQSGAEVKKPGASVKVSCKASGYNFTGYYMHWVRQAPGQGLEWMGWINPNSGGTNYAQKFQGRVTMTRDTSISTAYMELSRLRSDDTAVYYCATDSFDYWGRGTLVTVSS
VL: QSVLTQPPSASGTPGQRVTISCSGSRSSIGSNTVSWYQQLPGTAPKLIIYTNNQRPSGVPDRFSGSKSGTSATLAISGLQSEDEADYYCASWDDSLNDYVFGVGTKVTVL
notes: phage scFv
Regarding B10, the binding result in assay [2] is reported as “binds”.
